# Results reported in IntAct's records for PubMed 21145460.
# B1: Regulator of nonsense transcripts 1 (Homo sapiens), Q92900-2 (parent)
# chain: MSVEAYGPSSQTLTFLDTEEAELLGADTQGSEFEFTDFTLPSQTQTPPGGPGGPGGGGAGGPGGAGAGAAAGQLDAQVGPEGILQNGAVDDSVAKTSQLLAELNFEEDEEDTYYTKDLPIHACSYCGIHDPACVVYCNTSKKWFCNGRGNTSGSHIVNHLVRAKCKEVTLHKDGPLGETVLECYNCGCRNVFLLGFIPAKADSVVVLLCRQPCASQSSLKDINWDSSQWQPLIQDRCFLSWLVKIPSEQEQLRARQITAQQINKLEELWKENPSATLEDLEKPGVDEEPQHVLLRYEDAYQYQNIFGPLVKLEADYDKKLKESQTQDNITVRWDLGLNKKRIAYFTLPKTDSDMRLMQGDEICLRYKGDLAPLWKGIGHVIKVPDNYGDEIAIELRSSVGAPVEVTHNFQVDFVWKSTSFDRMQSALKTFAVDETSVSGYIYHKLLGHEVEDVIIKCQLPKRFTAQGLPDLNHSQVYAVKTVLQRPLSLIQGPPGTGKTVTSATIVYHLARQGNGPVLVCAPSNIAVDQLTEKIHQTGLKVVRLCAKSREAIDSPVSFLALHNQIRNMDSMPELQKLQQLKDETGELSSADEKRYRALKRTAERELLMNADVICCTCVGAGDPRLAKMQFRSILIDESTQATEPECMVPVVLGAKQLILVGDHCQLGPVVMCKKAAKAGLSQSLFERLVVLGIRPIRLQVQYRMHPALSAFPSNIFYEGSLQNGVTAADRVKKGFDFQWPQPDKPMFFYVTQGQEEIASSGTSYLNRTEAANVEKITTKLLKAGAKPDQIGIITPYEGQRSYLVQYMQFSGSLHTKLYQEVEIASVDAFQGREKDFIILSCVRANEHQGIGFLNDPRRLNVALTRARYGVIIVGNPKALSKQPLWNHLLNYYKEQKVLVEGPLNNLRESLMQFSKPRKLVNTINPGARFMTTAMYDAREAIIPGSVYDRSSQGRPSSMYFQTHDQIGMISAGPSHVAAMNIPIPFNLVMPPMPPPGYFGQANGPAAGRGTPKGKTGRGGRQKNRFGLPGPSQTNLPNSQASQDVASQPFSQGALTQGYISMSQPSQMSQPGLSQPELSQDSYLGDEFKSQIDVALSQDSTYQGERAYQHGGVTGLSQY
# partner: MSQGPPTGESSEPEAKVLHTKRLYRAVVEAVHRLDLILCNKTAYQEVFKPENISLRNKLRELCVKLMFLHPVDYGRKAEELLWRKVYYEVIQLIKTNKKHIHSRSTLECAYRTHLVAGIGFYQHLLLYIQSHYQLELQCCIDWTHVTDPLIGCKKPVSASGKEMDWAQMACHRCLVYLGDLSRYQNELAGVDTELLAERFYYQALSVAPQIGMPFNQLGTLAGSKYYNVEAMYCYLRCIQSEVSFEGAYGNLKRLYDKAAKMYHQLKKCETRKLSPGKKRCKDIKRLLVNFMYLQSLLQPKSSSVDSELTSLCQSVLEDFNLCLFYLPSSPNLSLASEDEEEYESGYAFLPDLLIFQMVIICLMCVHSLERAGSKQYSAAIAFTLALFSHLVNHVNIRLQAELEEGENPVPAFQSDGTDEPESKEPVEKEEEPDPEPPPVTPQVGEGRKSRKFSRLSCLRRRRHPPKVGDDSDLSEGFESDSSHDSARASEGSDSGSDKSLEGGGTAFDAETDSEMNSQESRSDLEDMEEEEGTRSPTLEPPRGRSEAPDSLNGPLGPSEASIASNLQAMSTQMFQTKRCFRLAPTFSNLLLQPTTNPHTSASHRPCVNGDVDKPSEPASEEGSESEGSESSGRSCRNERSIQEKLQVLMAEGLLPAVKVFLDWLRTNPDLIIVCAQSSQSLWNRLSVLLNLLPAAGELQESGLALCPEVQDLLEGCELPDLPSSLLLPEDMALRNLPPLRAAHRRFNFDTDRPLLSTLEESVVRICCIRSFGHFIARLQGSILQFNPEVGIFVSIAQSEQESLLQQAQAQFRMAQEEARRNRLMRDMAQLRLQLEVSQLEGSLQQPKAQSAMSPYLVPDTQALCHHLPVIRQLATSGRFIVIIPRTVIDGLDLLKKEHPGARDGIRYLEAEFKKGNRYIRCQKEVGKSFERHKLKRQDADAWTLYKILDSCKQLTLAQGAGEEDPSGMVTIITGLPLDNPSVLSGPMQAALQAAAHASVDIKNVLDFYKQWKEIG
# B2: Regulator of nonsense transcripts 1 (Homo sapiens), Q92900-2 (parent)
# chain: B1 chain
# Variants of: B1
# Details: with smg5_human SMG5, Q9UPR3
row,Variant,effect of a mutation on the interaction
1,D636A;E637A,increasing interaction
2,K498A,increasing interaction

# Variants of: B2
# Details: with est1a_human SMG6, Q86US8
# est1a_human SMG6, Q86US8, sequence (Q86US8 whole entry): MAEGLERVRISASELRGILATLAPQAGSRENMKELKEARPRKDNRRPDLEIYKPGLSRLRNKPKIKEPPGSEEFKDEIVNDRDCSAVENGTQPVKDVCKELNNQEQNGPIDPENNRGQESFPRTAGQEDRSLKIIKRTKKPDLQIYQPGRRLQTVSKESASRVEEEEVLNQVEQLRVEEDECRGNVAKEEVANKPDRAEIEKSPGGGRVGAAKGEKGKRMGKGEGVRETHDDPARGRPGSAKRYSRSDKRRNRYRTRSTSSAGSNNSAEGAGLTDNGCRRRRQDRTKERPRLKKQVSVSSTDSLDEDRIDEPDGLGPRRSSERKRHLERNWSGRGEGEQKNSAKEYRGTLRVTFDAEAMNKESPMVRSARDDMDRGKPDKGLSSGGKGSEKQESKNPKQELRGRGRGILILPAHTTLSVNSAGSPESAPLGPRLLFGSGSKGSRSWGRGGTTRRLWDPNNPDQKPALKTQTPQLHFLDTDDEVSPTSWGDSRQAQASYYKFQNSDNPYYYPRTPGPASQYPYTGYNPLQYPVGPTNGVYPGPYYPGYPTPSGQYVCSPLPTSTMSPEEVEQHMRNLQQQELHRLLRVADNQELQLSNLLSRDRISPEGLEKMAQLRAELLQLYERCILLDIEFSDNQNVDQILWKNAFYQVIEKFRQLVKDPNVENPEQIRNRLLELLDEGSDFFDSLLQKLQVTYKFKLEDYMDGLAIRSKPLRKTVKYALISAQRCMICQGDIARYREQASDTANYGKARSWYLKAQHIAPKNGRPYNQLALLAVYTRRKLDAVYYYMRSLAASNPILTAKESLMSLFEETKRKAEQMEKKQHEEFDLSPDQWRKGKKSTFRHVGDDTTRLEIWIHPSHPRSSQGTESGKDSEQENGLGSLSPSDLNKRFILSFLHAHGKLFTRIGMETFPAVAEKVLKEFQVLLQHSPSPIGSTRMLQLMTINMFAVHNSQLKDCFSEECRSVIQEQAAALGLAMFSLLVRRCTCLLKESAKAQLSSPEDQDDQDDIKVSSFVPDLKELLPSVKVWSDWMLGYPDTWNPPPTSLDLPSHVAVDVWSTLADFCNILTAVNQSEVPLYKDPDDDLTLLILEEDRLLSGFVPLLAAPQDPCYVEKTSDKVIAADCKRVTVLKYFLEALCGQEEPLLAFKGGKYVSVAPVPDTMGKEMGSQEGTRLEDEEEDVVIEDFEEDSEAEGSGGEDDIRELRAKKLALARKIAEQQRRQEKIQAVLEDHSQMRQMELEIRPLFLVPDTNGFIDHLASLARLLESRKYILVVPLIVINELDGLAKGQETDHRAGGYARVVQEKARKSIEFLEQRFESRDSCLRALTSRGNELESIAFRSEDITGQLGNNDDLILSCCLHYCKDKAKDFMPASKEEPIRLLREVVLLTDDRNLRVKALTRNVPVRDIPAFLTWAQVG
row,Variant,effect of a mutation on the interaction
1,D636A;E637A,increasing interaction
2,K498A,increasing interaction
